Experimental data published in patent US20080305122A1.

Assays:
[1] = target: PGCC(95-104) epitope peptide (Ac-…-NH2), pigeon cytochrome C (pigeon); test: ELISA, coated PGCC(95-104) peptide, control mouse serum, anti-mouse IgG1 or IgG2a detection
[2] = target: HIV gp160(843-855) peptide (HIV); test: ELISA, coated HIV gp160(843-855) peptide, control mouse serum, anti-mouse IgG1 or IgG2a detection

Substance: Serum of mice given no immunogen (control of Table 22.1) (antibody)
- ELISA absorbance at 450 nm, serum dilution 1:20 (absorbance (450 nm)) [1]: 0.105
- ELISA absorbance at 450 nm, serum dilution 1:60 (absorbance (450 nm)) [1]: 0.72
- ELISA absorbance at 450 nm, serum dilution 1:180 (absorbance (450 nm)) [1]: 0.049
- ELISA absorbance at 450 nm, serum dilution 1:540 (absorbance (450 nm)) [1]: 0.036

Substance: Serum of mice given no immunogen (control of Table 22.2) (antibody)
- ELISA absorbance at 450 nm, serum dilution 1:20 (absorbance (450 nm)) [1]: 0.042
- ELISA absorbance at 450 nm, serum dilution 1:60 (absorbance (450 nm)) [1]: 0.004
- ELISA absorbance at 450 nm, serum dilution 1:180 (absorbance (450 nm)) [1]: -0.003
- ELISA absorbance at 450 nm, serum dilution 1:540 (absorbance (450 nm)) [1]: 0.007
- ELISA absorbance at 450 nm, serum dilution 1:1620 (absorbance (450 nm)) [1]: 0.006
- ELISA absorbance at 450 nm, serum dilution 1:4860 (absorbance (450 nm)) [1]: 0.005

Substance: Serum of mice given no immunogen (control of Table 22.3) (antibody)
- ELISA absorbance at 450 nm, serum dilution 1:20 (absorbance (450 nm)) [2]: 0.084
- ELISA absorbance at 450 nm, serum dilution 1:60 (absorbance (450 nm)) [2]: 0.045
- ELISA absorbance at 450 nm, serum dilution 1:180 (absorbance (450 nm)) [2]: 0.004
- ELISA absorbance at 450 nm, serum dilution 1:540 (absorbance (450 nm)) [2]: -0.003
